One assay deals with T1, human ANG1 (RD,923-AN) (human, UniProt Q15389 20-498, limits assumed).
T1 sequence (looked up): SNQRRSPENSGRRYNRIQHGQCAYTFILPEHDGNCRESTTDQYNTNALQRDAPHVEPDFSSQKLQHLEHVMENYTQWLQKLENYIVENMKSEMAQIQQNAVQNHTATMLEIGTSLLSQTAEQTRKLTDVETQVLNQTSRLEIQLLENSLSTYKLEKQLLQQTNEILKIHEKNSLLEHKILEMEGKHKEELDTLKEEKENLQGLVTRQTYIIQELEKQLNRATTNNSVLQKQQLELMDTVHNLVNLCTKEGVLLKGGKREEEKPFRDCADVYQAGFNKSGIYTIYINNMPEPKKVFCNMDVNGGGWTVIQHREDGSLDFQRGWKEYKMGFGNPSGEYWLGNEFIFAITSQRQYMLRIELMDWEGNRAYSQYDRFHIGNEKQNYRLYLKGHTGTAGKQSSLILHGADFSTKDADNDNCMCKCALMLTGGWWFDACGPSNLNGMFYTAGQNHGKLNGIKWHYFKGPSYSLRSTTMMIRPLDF
The assay is described as follows: ELISA, plate coated with human ANG1, OD450. Here is the method:
(§1) The plate was coated with human ANG1 (RD,923-AN) at a concentration of 1 ng/μl, 100 μl per well overnight at 4° C. The supernatant was removed and 250 μl 5% skimmed milk powder was added for blocking at 37° C. for 1 h. The plate was washed with a washing machine for 3 times, and 100 μl 1:1 diluted phage supernatant was added and incubated at 37° C. for 1 h. The plate was washed with a washing machine for 3 times, and 100 μl 1:10000 diluted M13-HRP was added to each well and incubated at 37° C. for 1 h. The plate was washed with a washing machine for 3 times, and 100 μl TMB was added to each well for color development. After 5-10 min, 100 μl 1 M H₂SO₄ was added to each well to stop the color development, and the OD450 value was measured with a microplate reader.

In assay [1] the target is T2, biotin-hAng2-His (sinobiological, 10691-H07H) (human, UniProt O15123 19-496, biotin label, position not stated).
T2 construct: Bought reagent; also called Human ANG2-his; human ANG2
T2 sequence (looked up): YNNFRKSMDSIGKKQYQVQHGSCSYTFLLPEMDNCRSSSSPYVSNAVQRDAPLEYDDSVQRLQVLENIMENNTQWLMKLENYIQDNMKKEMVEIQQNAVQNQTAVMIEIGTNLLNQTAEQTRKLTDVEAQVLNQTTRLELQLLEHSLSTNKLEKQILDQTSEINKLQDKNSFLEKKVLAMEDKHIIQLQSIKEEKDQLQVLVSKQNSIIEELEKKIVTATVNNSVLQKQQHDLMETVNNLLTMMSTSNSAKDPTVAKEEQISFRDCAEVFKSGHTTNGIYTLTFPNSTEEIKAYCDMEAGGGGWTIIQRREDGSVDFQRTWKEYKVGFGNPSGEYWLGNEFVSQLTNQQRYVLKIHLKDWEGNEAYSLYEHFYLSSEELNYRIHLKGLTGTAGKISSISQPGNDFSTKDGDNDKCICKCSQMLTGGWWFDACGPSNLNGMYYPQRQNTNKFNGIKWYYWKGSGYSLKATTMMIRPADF
Nature of the assay: ELISA, biotin-hAng2-His captured on streptavidin plate, OD450. Here is the method:
as §1, with “streptavidin (abcam, ab123480)” for “human ANG1 (RD,923-AN)”, “C., and then the” for “C. The”, “removed.” for “removed and”, “blocking at 37° C. for 1 h, and the plate was washed with a washing machine for 3 times. 0.5 ng/μl biotin-hAng2-His (sinobiological, 10691-H07H) was added and incubated” for “blocking”, “anti-M13-HRP (GE, 27-9421-01)” for “M13-HRP”

Assay [2] addresses T3, human ANG2 with human Fc tag (huANG2-Fc) (human, biotin label (Dojindo kit LK03, position not stated) in Test Examples 3 and 4; unlabelled in Test Example 5).
T3 construct: It starts at YNNFRK, without a signal peptide; also called bio-huANG2-Fc; human Ang2-Fc
The assay is described as follows: competition ELISA: Tie2-Fc coated, biotin-huANG2-Fc 0.15 ug/ml premixed with antibody; blocking of ANG2 binding to Tie2. Here is the method:
Specific methods: the ELISA plate was coated with Tie2-Fc (SEQ ID NO: 2, 3 μg/ml dissolved in PBS, 100 μl/well) overnight at 4° C. and the coating solution was removed, 5% skimmed milk blocking solution diluted with PBS was added at 200 μl/well and incubated in a 37° C. incubator for 2 h for blocking. After the blocking was completed, the blocking solution was discarded and the plate was washed with PBST buffer (PBS containing 0.05% tween-20, pH 7.4) for 5 times. […] The solution was mixed well and then incubated at 37° C. for 15 min, added to the ELISA plate and incubated at 37° C. for 1 h. After the incubation was completed, the reaction solution in the ELISA plate was discarded and the plate was washed 5 times with PB ST. Then 1:4000 diluted streptavidin-peroxidase polymer (Sigma, 52438-250UG) was added at 100 μl/well and incubated at 37° C. for 1 h. After washing the plate 5 times with PBST, 100 μl/well TMB chromogenic substrate (KPL, 52-00-03) was added and incubated at room temperature for 3-10 min, and 1 M H₂SO₄ was added at 100 μl/well to stop the reaction.
(ELISA stands for enzyme-linked immunosorbent assay.)

In general, EC50 (read off the curve) refers to the concentration needed to bring the measured effect to its halfway point. In general, IC50 refers to the concentration needed to halve the response being measured. A low value points to greater potency.

B1: Llama-derived single domain antibody nano14 (VHH)
VHH: DVQLQESGGGLVQPGGSLRLSCAASGFTFDDFGMSWVRQAPGKGLEWVSSITWNGGSTYYADSVKGRFTISRDNAKNTVYLQMNSLKPEDTAIYYCNADHPQGYWGQGTQVTVSS
In the case of B1, in the assay with human ANG1 (RD,923-AN), the binding result is listed as “no binding (tested: 100 nM)”. In addition, the “EC50 (read off the curve)” value in assay [1] was about 0.08 nM. In assay [2], the IC50 is 0.0393 nM.

B2: Llama-derived single domain antibody nano15 (VHH)
VHH: DVQLQESGGGLVQPGGSLRLSCAASGFTFNSYAMSWVRQAPGKGLEWVSTINSGGGRTGYADSVKGRFTISRDNAKNTLYLQMNSLKPEDTAIYYCNADHPQGYWGQGTQVTVSS
As for B2, in the assay with human ANG1 (RD,923-AN), the binding result is given as “no binding (tested: 100 nM)”. The “EC50 (read off the curve)” value in assay [1] was about 0.06 nM. Moreover, the IC50 in assay [2] came out at 0.0281 nM.
